# Assays:
# Experiment in all cases: cell-based or functional assay
# [1] = target: HIV-1 Env of pseudovirus CAP210.2.00.E8 (HIV-1)
# [2] = target: HIV-1 Env of pseudovirus 6244_13_B5_4576 (HIV-1)
# [3] = target: HIV-1 Env of pseudovirus CNE52 (HIV-1)
# [4] = target: HIV-1 Env of pseudovirus CAP45.2.00.G3 (HIV-1)
# [5] = target: HIV-1 Env of pseudovirus CNE5 (HIV-1)
# [6] = target: HIV-1 Env of pseudovirus CNE8 (HIV-1)
# [7] = target: HIV-1 Env of pseudovirus TRJO4551.58 (HIV-1)
# [8] = target: HIV-1 Env of pseudovirus WITO4160.33 (HIV-1)
# [9] = target: HIV-1 Env of pseudovirus Ce0393_C3 (HIV-1)
# [10] = target: HIV-1 Env of pseudovirus 1394C9G1(Rev-) (HIV-1)
# [11] = target: HIV-1 Env of pseudovirus 62357_14_D3_4589 (HIV-1)
# [12] = target: HIV-1 Env of pseudovirus CAAN5342.A2 (HIV-1)
# [13] = target: HIV-1 Env of pseudovirus HIV-001428-2.42 (HIV-1)
# [14] = target: HIV-1 Env of pseudovirus Ce704809221_1B3 (HIV-1)
# [15] = target: HIV-1 Env of pseudovirus TRO.11 (HIV-1)
# [16] = target: HIV-1 Env of pseudovirus T250-4 (HIV-1)
# [17] = target: HIV-1 Env of pseudovirus 6535.3 (HIV-1)
# [18] = target: HIV-1 Env of pseudovirus ZM247v1(Rev-) (HIV-1)
# [19] = target: HIV-1 Env of pseudovirus AC10.0.29 (HIV-1)
# [20] = target: HIV-1 Env of pseudovirus PVO.4 (HIV-1)
# [21] = target: HIV-1 Env of pseudovirus ZM109F.PB4 (HIV-1)
# [22] = target: HIV-1 Env of pseudovirus 1054_07_TC4_1499 (HIV-1)
# [23] = target: HIV-1 Env of pseudovirus 6240_08_TA5_4622 (HIV-1)
# [24] = target: HIV-1 Env of pseudovirus THRO4156.18 (HIV-1)
# [25] = target: HIV-1 Env of pseudovirus ZM135M.PL10a (HIV-1)
# [26] = target: HIV-1 Env of pseudovirus HIV-16055-2.3 (HIV-1)
# [27] = target: HIV-1 Env of pseudovirus HIV-16845-2.22 (HIV-1)
# [28] = target: HIV-1 Env of pseudovirus Q769.d22 (HIV-1)
# [29] = target: HIV-1 Env of pseudovirus Ce1172_H1 (HIV-1)
# [30] = target: HIV-1 Env of pseudovirus Ce2010_F5 (HIV-1)
# [31] = target: HIV-1 Env of pseudovirus ZM233M.PB6 (HIV-1)
# [32] = target: HIV-1 Env of pseudovirus Ce703010054_2A2 (HIV-1)
# [33] = target: HIV-1 Env of pseudovirus MS208.A1 (HIV-1)
# [34] = target: HIV-1 Env of pseudovirus CNE30 (HIV-1)
# [35] = target: HIV-1 Env of pseudovirus Q23.17 (HIV-1)
# [36] = target: HIV-1 Env of pseudovirus 246F C1G (HIV-1)
# [37] = target: HIV-1 Env of pseudovirus Ce0682_E4 (HIV-1)
# [38] = target: HIV-1 Env of pseudovirus SC05_8C11_2344 (HIV-1)
substance,measurement,setting,value
PGDM1400 (antibody),neutralization IC50,[1],0.034 µg/mL
same,neutralization IC80,[1],0.514 µg/mL
same,neutralization IC50,[2],> 50 µg/mL
same,neutralization IC80,[2],> 50 µg/mL
same,neutralization IC50,[3],1.15 µg/mL
same,neutralization IC80,[3],9.97 µg/mL
same,neutralization IC50,[4],< 0.001 µg/mL
same,neutralization IC80,[4],0.002 µg/mL
same,IC50 (Titer in TZM.bl cells),[5],< 0.001 µg/mL
same,IC80 (Titer in TZM.bl cells),[5],< 0.001 µg/mL
same,IC50 (Titer in TZM.bl cells),[6],< 0.001 µg/mL
same,IC80 (Titer in TZM.bl cells),[6],0.01 µg/mL
same,neutralization IC50,[7],> 50 µg/mL
same,neutralization IC80,[7],> 50 µg/mL
same,neutralization IC50,[8],< 0.001 µg/mL
same,neutralization IC80,[8],0.008 µg/mL
same,neutralization IC50,[9],0.015 µg/mL
same,neutralization IC80,[9],0.044 µg/mL
same,neutralization IC50,[10],< 0.001 µg/mL
same,neutralization IC80,[10],0.004 µg/mL
same,neutralization IC50,[11],> 50 µg/mL
same,neutralization IC80,[11],> 50 µg/mL
same,neutralization IC50,[12],> 50 µg/mL
same,neutralization IC80,[12],> 50 µg/mL
same,neutralization IC50,[13],< 0.001 µg/mL
same,neutralization IC80,[13],0.027 µg/mL
same,neutralization IC50,[14],0.28 µg/mL
same,neutralization IC80,[14],1.1 µg/mL
same,neutralization IC50,[15],0.283 µg/mL
same,neutralization IC80,[15],1.38 µg/mL
same,neutralization IC50,[16],< 0.001 µg/mL
same,neutralization IC80,[16],< 0.001 µg/mL
same,neutralization IC50,[17],> 50 µg/mL
same,neutralization IC80,[17],> 50 µg/mL
same,neutralization IC50,[18],0.019 µg/mL
same,neutralization IC80,[18],0.051 µg/mL
same,neutralization IC50,[19],0.105 µg/mL
same,neutralization IC80,[19],0.869 µg/mL
same,neutralization IC50,[20],0.484 µg/mL
same,neutralization IC80,[20],6.49 µg/mL
same,neutralization IC50,[21],0.057 µg/mL
same,neutralization IC80,[21],0.382 µg/mL
same,neutralization IC50,[22],> 50 µg/mL
same,neutralization IC80,[22],> 50 µg/mL
same,neutralization IC50,[23],> 50 µg/mL
same,neutralization IC80,[23],> 50 µg/mL
same,neutralization IC50,[24],0.072 µg/mL
same,neutralization IC80,[24],0.348 µg/mL
same,neutralization IC50,[25],> 50 µg/mL
same,neutralization IC80,[25],> 50 µg/mL
same,neutralization IC50,[26],< 0.001 µg/mL
same,neutralization IC80,[26],0.003 µg/mL
same,neutralization IC50,[27],> 50 µg/mL
same,neutralization IC80,[27],> 50 µg/mL
same,neutralization IC50,[28],0.002 µg/mL
same,neutralization IC80,[28],0.018 µg/mL
same,neutralization IC50,[29],0.021 µg/mL
same,neutralization IC80,[29],0.06 µg/mL
same,neutralization IC50,[30],> 50 µg/mL
same,neutralization IC80,[30],> 50 µg/mL
same,neutralization IC50,[31],< 0.001 µg/mL
same,neutralization IC80,[31],0.001 µg/mL
same,neutralization IC50,[32],0.015 µg/mL
same,neutralization IC80,[32],0.26 µg/mL
same,neutralization IC50,[33],< 0.001 µg/mL
same,neutralization IC80,[33],0.139 µg/mL
same,neutralization IC50,[34],> 50 µg/mL
same,neutralization IC80,[34],> 50 µg/mL
same,neutralization IC50,[35],< 0.001 µg/mL
same,neutralization IC80,[35],0.003 µg/mL
same,neutralization IC50,[36],> 50 µg/mL
same,neutralization IC80,[36],> 50 µg/mL
same,neutralization IC50,[37],0.01 µg/mL
same,neutralization IC80,[37],0.043 µg/mL
same,neutralization IC50,[38],1.26 µg/mL
same,neutralization IC80,[38],3.59 µg/mL
